{"source": "paper PMC2852888", "molecules": {"B1": {"name": "MLP E-box 16-mer, label not stated (dsDNA)", "DNA 1": "TAGGCCACGTGACCGG", "DNA 2": "CCGGTCACGTGGCCTA"}, "B2": {"name": "MLP E-box 16-mer, FITC-labelled (dsDNA)", "DNA 1": "TAGGCCACGTGACCGG", "DNA 2": "CCGGTCACGTGGCCTA"}}, "key": {"[1]": {"target": "Max b/HLH/Z domain (amino acids 22-113) (UniProt P61244)", "sequence (P61244 22-113)": "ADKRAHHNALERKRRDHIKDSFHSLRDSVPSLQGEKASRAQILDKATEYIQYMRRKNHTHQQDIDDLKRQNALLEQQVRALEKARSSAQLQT", "assay": "fluorescence polarisation"}, "[2]": {"target": "Max b/HLH/Z domain (amino acids 22-113) (UniProt P61244)", "assay": "fluorescence polarisation", "remark": "listed apart in the source"}, "[3]": {"target": "Max b/HLH/Z domain (amino acids 22-113) (UniProt P61244)", "assay": "fluorescence polarisation", "remark": "listed apart in the source"}, "[4]": {"target": "Max b/HLH/Z domain (amino acids 22-113) (UniProt P61244)", "assay": "fluorescence polarisation", "remark": "listed apart in the source"}, "[5]": {"target": "T1, c-Myc b/HLH/Z;Max b/HLH/Z (;, UniProt P01106-1;P61244 347-439;22-113, |)", "T1 sequence (P01106 362-454, chain 1 of 2)": "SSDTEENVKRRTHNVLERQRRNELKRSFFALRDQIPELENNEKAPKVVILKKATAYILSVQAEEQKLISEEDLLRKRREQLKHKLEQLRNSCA", "T1 sequence (P61244 22-113, chain 2 of 2)": "as the sequence (P61244 22-113) above", "assay": "stopped-flow fluorescence anisotropy"}, "Mad1;Max b/HLH/Z [6]": {"target": "T2, Mad1;Max b/HLH/Z (;, UniProt Q05195;P61244 1-221;22-113, |)", "T2 sequence (Q05195 whole entry, chain 1 of 2)": "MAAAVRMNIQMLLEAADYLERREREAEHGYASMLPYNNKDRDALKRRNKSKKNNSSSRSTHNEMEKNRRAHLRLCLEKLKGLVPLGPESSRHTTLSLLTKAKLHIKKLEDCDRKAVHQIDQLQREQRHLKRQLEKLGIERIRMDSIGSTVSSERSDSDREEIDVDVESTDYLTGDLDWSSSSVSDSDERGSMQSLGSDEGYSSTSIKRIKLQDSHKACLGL", "T2 sequence (P61244 22-113, chain 2 of 2)": "as the sequence (P61244 22-113) above", "assay": "stopped-flow fluorescence anisotropy"}, "Max b/HLH/Z [7]": {"target": "T3, Max b/HLH/Z (UniProt P61244 22-113)", "T3 sequence (P61244 22-113)": "as above", "assay": "stopped-flow fluorescence anisotropy"}, "Max b/HLH/Z monomer": {"target": "Max b/HLH/Z monomer (UniProt P61244 22-113)", "sequence (P61244 22-113)": "as above", "assay": "stopped-flow fluorescence anisotropy"}, "Max b/HLH/Z [8]": {"target": "T3, Max b/HLH/Z", "assay": "stopped-flow fluorescence anisotropy", "remark": "listed apart in the source"}, "Mad1;Max b/HLH/Z [9]": {"target": "T2, Mad1;Max b/HLH/Z", "assay": "stopped-flow fluorescence anisotropy", "remark": "listed apart in the source"}, "[10]": {"target": "T1, c-Myc b/HLH/Z;Max b/HLH/Z", "assay": "stopped-flow fluorescence anisotropy", "remark": "listed apart in the source"}}, "note": "Read-outs that look alike come from different tables or passages of the source.", "data": [{"molecule": "c-Myc b/HLH/Z domain (amino acids 347-439) (domain or fragment)", "values": [{"measurement": "kobs (association rate constant)", "setting": "[1]", "value": 90, "unit": "s⁻¹"}, {"measurement": "kobs (association rate constant)", "setting": "[2]", "value": 109, "unit": "s⁻¹"}, {"measurement": "kobs (association rate constant)", "setting": "[3]", "value": 67, "unit": "s⁻¹"}, {"measurement": "association rate constant with the Max·DNA complex", "setting": "[4]", "value": 126, "unit": "s⁻¹"}, {"measurement": "k2 (forward rate constant of the second step, from the intercept)", "setting": "[4]", "value": 91, "unit": "s⁻¹"}, {"measurement": "kobs (association rate constant)", "setting": "[4]", "value": 118, "unit": "s⁻¹"}]}, {"molecule": "B1", "values": [{"measurement": "binding result", "setting": "[5]", "value": "binds"}, {"measurement": "binding result", "setting": "Mad1;Max b/HLH/Z [6]", "value": "binds"}, {"measurement": "binding result", "setting": "Max b/HLH/Z [7]", "value": "binds"}, {"measurement": "binding result", "setting": "Max b/HLH/Z monomer", "value": "binds"}]}, {"molecule": "B2", "values": [{"measurement": "binding result", "setting": "Max b/HLH/Z [8]", "value": "binds"}, {"measurement": "binding result", "setting": "Mad1;Max b/HLH/Z [9]", "value": "binds"}, {"measurement": "binding result", "setting": "[10]", "value": "binds"}]}]}
